Assay [1] has as its target human FcγRIIb extracellular domain with C-terminal His-tag (human) (UniProt P31994). Description: SPR; binding amount / that of 04H1637-G1m/04L1610-lam1.
Assay [2] shares this target. The assay can be described thus: SPR (Biacore T200), FcγRIIb 1000 nM, amount bound per unit captured antibody. Background: In SPR one partner is held on a chip, and binding of the other changes the refractive index at the surface.

human FcγRIIb extracellular domain with C-terminal His-tag (human), sequence (P31994 43-217): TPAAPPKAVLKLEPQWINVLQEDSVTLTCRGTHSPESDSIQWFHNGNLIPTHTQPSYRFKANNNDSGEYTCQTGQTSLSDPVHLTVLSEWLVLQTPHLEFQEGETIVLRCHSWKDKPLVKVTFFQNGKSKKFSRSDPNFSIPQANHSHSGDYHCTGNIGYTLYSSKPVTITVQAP

B1: 04H1654-KT462/04L1610-lam1//04H1656-HT445/04L1610-lam1 (antibody, human IgG1, lambda)
heavy 1: QVQLVESGGGVVQPGGSLRLSCAASGFTFSSKTMNWVRQAPGKGLEWVSSISTQSHYIYYARSVRGRFTISRDNAKNSLYLQMNSLRAEDTAVYYCARYGKREDMLWVFDYWGQGTLVTVSSASTKGPSVFPLAPSSKSTSGGTAALGCLVKDYFPEPVTVSWNSGALTSGVHTFPAVLQSSGLYSLSSVVTVPSSSLGTQTYICNVNHKPSNTKVDKRVEPKSCDKTHTCPPCPAPEFQWGPMVFLFPPKPKDVLMISRTPEVTCVVVDVSDEEPEVKFNWYVDGVEVHNAKTKPREEQYNATYRVVSVLPVLHQDWLNGKEYKCKVSNDALPAPIEKTISKAKGQPREPQVYTLPPSRKEMTKNQVSLTCLVKGFYPSDIAVEWESNGQPENNYKTTPPVLDSDGSFFLYSKLTVDKSRWQQGNVFSCSVMHEALHNHYTQKSLSLSP
heavy 2: QVQLVESGGGVVQPGGSLRLSCAASGFTFSSKTMNWVRQAPGKGLEWVSSISTQSHYIYYAESVRGRFTISRDNAKNSLYLQMNSLRAEDTAVYYCARYGAREDMLWVFDYWGQGTLVTVSSASTKGPSVFPLAPSSKSTSGGTAALGCLVKDYFPEPVTVSWNSGALTSGVHTFPAVLQSSGLYSLSSVVTVPSSSLGTQTYICNVNHKPSNTKVDKRVEPKSCDKTHTCPPCPAPELLAGPSVFLFPPKPKDVLMISRTPEVTCVVVDVSHEEPEVKFNWYVDGVEVHNAKTKPREEQYNATYRVVSVLPVLHQDWLNGKEYKCKVSNDALPKPDEETISKAKGQPREPQVYTLPPSREEMTKNQVSLTCLVKGFYPSDIAVEWESNGQPENNYKTTPPVLDSDGSFFLYSKLTVDKSRWQQGNVFSCSVMHEALHNHYTQESLSLSP
light: QSALTQPPSASGSPGQSVTISCEGPSTGVGDYNWVHWYQQHPGKAPKLMIYFTSKKPSGVPDRFSGSKSGNTASLTVSGLQAEDEADYYCQTYAAPLGPMFGGGTKLTVLGQPKAAPSVTLFPPSSEELQANKATLVCLISDFYPGAVTVAWKADSSPVKAGVETTTPSKQSNNKYAASSYLSLTPEQWKSHRSYSCQVTHEGSTVEKTVAPTECS
In assay [1], B1 displayed a Relative binding amount of 3.1. In addition, in assay [2], the Binding amount came out at 0.025.

B2: 04H1654-KT461/04L1610-lam1//04H1656-HT443/04L1610-lam1 (antibody, human IgG1, lambda)
heavy 1: QVQLVESGGGVVQPGGSLRLSCAASGFTFSSKTMNWVRQAPGKGLEWVSSISTQSHYIYYARSVRGRFTISRDNAKNSLYLQMNSLRAEDTAVYYCARYGKREDMLWVFDYWGQGTLVTVSSASTKGPSVFPLAPSSKSTSGGTAALGCLVKDYFPEPVTVSWNSGALTSGVHTFPAVLQSSGLYSLSSVVTVPSSSLGTQTYICNVNHKPSNTKVDKRVEPKSCDKTHTCPPCPAPEFQWGPMVFLFPPKPKDVLMISRTPEVTCVVVDVSDEEPEVKFNWYVDGVEVHNAKTKPREEQYNATYRVVSVLPVLHQDWLNGKEYKCKVSNDALPAPEEKTISKAKGQPREPQVYTLPPSRKEMTKNQVSLTCLVKGFYPSDIAVEWESNGQPENNYKTTPPVLDSDGSFFLYSKLTVDKSRWQQGNVFSCSVMHEALHNHYTQKSLSLSP
heavy 2: QVQLVESGGGVVQPGGSLRLSCAASGFTFSSKTMNWVRQAPGKGLEWVSSISTQSHYIYYAESVRGRFTISRDNAKNSLYLQMNSLRAEDTAVYYCARYGAREDMLWVFDYWGQGTLVTVSSASTKGPSVFPLAPSSKSTSGGTAALGCLVKDYFPEPVTVSWNSGALTSGVHTFPAVLQSSGLYSLSSVVTVPSSSLGTQTYICNVNHKPSNTKVDKRVEPKSCDKTHTCPPCPAPELLAGPSVFLFPPKPKDVLMISRTPEVTCVVVDVSHEEPEVKFNWYVDGVEVHNAKTKPREEQYNATYRVVSVLPVLHQDWLNGKEYKCKVSNDALPAPEEETISKAKGQPREPQVYTLPPSREEMTKNQVSLTCLVKGFYPSDIAVEWESNGQPENNYKTTPPVLDSDGSFFLYSKLTVDKSRWQQGNVFSCSVMHEALHNHYTQESLSLSP
light: QSALTQPPSASGSPGQSVTISCEGPSTGVGDYNWVHWYQQHPGKAPKLMIYFTSKKPSGVPDRFSGSKSGNTASLTVSGLQAEDEADYYCQTYAAPLGPMFGGGTKLTVLGQPKAAPSVTLFPPSSEELQANKATLVCLISDFYPGAVTVAWKADSSPVKAGVETTTPSKQSNNKYAASSYLSLTPEQWKSHRSYSCQVTHEGSTVEKTVAPTECS
B2 came in with a Relative binding amount in assay [1] of 3.1. Also, the Binding amount in assay [2] turned out to be 0.025.

B3: 04H1654-KT473/04L1610-lam1//04H1656-HT482/04L1610-lam1 (antibody)
heavy 1: QVQLVESGGGVVQPGGSLRLSCAASGFTFSSKTMNWVRQAPGKGLEWVSSISTQSHYIYYARSVRGRFTISRDNAKNSLYLQMNSLRAEDTAVYYCARYGKREDMLWVFDYWGQGTLVTVSSASTKGPSVFPLAPSSKSTSGGTAALGCLVKDYFPEPVTVSWNSGALTSGVHTFPAVLQSSGLYSLSSVVTVPSSSLGTQTYICNVNHKPSNTKVDKRVEPKSCDKTHTCPPCPAPEFQWGPMVFLFPPKPKDVLMISRTPEVTCVVVDVSDEEPEVKFNWYVDGVEVHNAKTKPREEQYNATYRVVSVLPVLHQDWLNGKEYKCKVSNDALPAPIEKTISKAKGQPREPQVYTLPPSRKEMTKNQVSLTCLVKGFYPSDIAVEWESNGQPENNYKTTPPVLDSDGSFFLYSKLTVDKSRWQQGNVFSCSVMHEALHAHTTRKELSLSP
heavy 2: QVQLVESGGGVVQPGGSLRLSCAASGFTFSSKTMNWVRQAPGKGLEWVSSISTQSHYIYYAESVRGRFTISRDNAKNSLYLQMNSLRAEDTAVYYCARYGAREDMLWVFDYWGQGTLVTVSSASTKGPSVFPLAPSSKSTSGGTAALGCLVKDYFPEPVTVSWNSGALTSGVHTFPAVLQSSGLYSLSSVVTVPSSSLGTQTYICNVNHKPSNTKVDKRVEPKSCDKTHTCPPCPAPELLAGPSVFLFPPKPKDVLMISRTPEVTCVVVDVSHEEPEVKFNWYVDGVEVHNAKTKPREEQYNATYRVVSVLPVLHQDWLNGKEYKCKVSNDALPKPDEETISKAKGQPREPQVYTLPPSREEMTKNQVSLTCLVKGFYPSDIAVEWESNGQPENNYKTTPPVLDSDGSFFLYSKLTVDKSRWQQGNVFSCSVMHEALHAHTTREELSLSP
light: QSALTQPPSASGSPGQSVTISCEGPSTGVGDYNWVHWYQQHPGKAPKLMIYFTSKKPSGVPDRFSGSKSGNTASLTVSGLQAEDEADYYCQTYAAPLGPMFGGGTKLTVLGQPKAAPSVTLFPPSSEELQANKATLVCLISDFYPGAVTVAWKADSSPVKAGVETTTPSKQSNNKYAASSYLSLTPEQWKSHRSYSCQVTHEGSTVEKTVAPTECS
In assay [1], B3 had a Relative binding amount of 3.2. Also, in assay [2], the Binding amount came out at 0.026.

B4: 04H1654-KT462/04L1612-lam1//04H1656-HT445/04L1612-lam1 (antibody, human IgG1, lambda)
heavy 1: QVQLVESGGGVVQPGGSLRLSCAASGFTFSSKTMNWVRQAPGKGLEWVSSISTQSHYIYYARSVRGRFTISRDNAKNSLYLQMNSLRAEDTAVYYCARYGKREDMLWVFDYWGQGTLVTVSSASTKGPSVFPLAPSSKSTSGGTAALGCLVKDYFPEPVTVSWNSGALTSGVHTFPAVLQSSGLYSLSSVVTVPSSSLGTQTYICNVNHKPSNTKVDKRVEPKSCDKTHTCPPCPAPEFQWGPMVFLFPPKPKDVLMISRTPEVTCVVVDVSDEEPEVKFNWYVDGVEVHNAKTKPREEQYNATYRVVSVLPVLHQDWLNGKEYKCKVSNDALPAPIEKTISKAKGQPREPQVYTLPPSRKEMTKNQVSLTCLVKGFYPSDIAVEWESNGQPENNYKTTPPVLDSDGSFFLYSKLTVDKSRWQQGNVFSCSVMHEALHNHYTQKSLSLSP
heavy 2: QVQLVESGGGVVQPGGSLRLSCAASGFTFSSKTMNWVRQAPGKGLEWVSSISTQSHYIYYAESVRGRFTISRDNAKNSLYLQMNSLRAEDTAVYYCARYGAREDMLWVFDYWGQGTLVTVSSASTKGPSVFPLAPSSKSTSGGTAALGCLVKDYFPEPVTVSWNSGALTSGVHTFPAVLQSSGLYSLSSVVTVPSSSLGTQTYICNVNHKPSNTKVDKRVEPKSCDKTHTCPPCPAPELLAGPSVFLFPPKPKDVLMISRTPEVTCVVVDVSHEEPEVKFNWYVDGVEVHNAKTKPREEQYNATYRVVSVLPVLHQDWLNGKEYKCKVSNDALPKPDEETISKAKGQPREPQVYTLPPSREEMTKNQVSLTCLVKGFYPSDIAVEWESNGQPENNYKTTPPVLDSDGSFFLYSKLTVDKSRWQQGNVFSCSVMHEALHNHYTQESLSLSP
light: QSALTQPPSASGSPGQSVTISCEGPSTGVGDYTYVHWYQQHPGKAPKLMIYFTSKKPSGVPDRFSGSKSGNTASLTVSGLQAEDEADYYCQTYAAPLGPMFGGGTKLTVLGQPKAAPSVTLFPPSSEELQANKATLVCLISDFYPGAVTVAWKADSSPVKAGVETTTPSKQSNNKYAASSYLSLTPEQWKSHRSYSCQVTHEGSTVEKTVAPTECS
B4 displayed a Relative binding amount in assay [1] of 3.4. In assay [2], the Binding amount was determined as 0.028.

B5: 04H1654-KT481/04L1610-lam1//04H1656-HT498/04L1610-lam1 (antibody)
heavy 1: QVQLVESGGGVVQPGGSLRLSCAASGFTFSSKTMNWVRQAPGKGLEWVSSISTQSHYIYYARSVRGRFTISRDNAKNSLYLQMNSLRAEDTAVYYCARYGKREDMLWVFDYWGQGTLVTVSSASTKGPSVFPLAPSSKSTSGGTAALGCLVKDYFPEPVTVSWNSGALTSGVHTFPAVLQSSGLYSLSSVVTVPSSSLGTQTYICNVNHKPSNTKVDKRVEPKSCDKTHTCPPCPAPEFQWGPMVFLFPPKPKDVLMISRTPEVTCVVVDVSDEEPEVKFNWYVDGVEVHNAKTKPREEQYNATYRVVSVLPVLHQDWLNGKEYKCKVSNDALPAPEEKTISKAKGQPREPQVYTLPPSRKEMTKNQVSLTCLVKGFYPSDIAVEWESNGQPENNYKTTPPVLDSDGSFFLYSKLTVDKSRWQQGNVFSCSVMHEALHAHTTRKELSLSP
heavy 2: QVQLVESGGGVVQPGGSLRLSCAASGFTFSSKTMNWVRQAPGKGLEWVSSISTQSHYIYYAESVRGRFTISRDNAKNSLYLQMNSLRAEDTAVYYCARYGAREDMLWVFDYWGQGTLVTVSSASTKGPSVFPLAPSSKSTSGGTAALGCLVKDYFPEPVTVSWNSGALTSGVHTFPAVLQSSGLYSLSSVVTVPSSSLGTQTYICNVNHKPSNTKVDKRVEPKSCDKTHTCPPCPAPELLAGPSVFLFPPKPKDVLMISRTPEVTCVVVDVSHEEPEVKFNWYVDGVEVHNAKTKPREEQYNATYRVVSVLPVLHQDWLNGKEYKCKVSNDALPAPEEETISKAKGQPREPQVYTLPPSREEMTKNQVSLTCLVKGFYPSDIAVEWESNGQPENNYKTTPPVLDSDGSFFLYSKLTVDKSRWQQGNVFSCSVMHEALHAHTTREELSLSP
light: QSALTQPPSASGSPGQSVTISCEGPSTGVGDYNWVHWYQQHPGKAPKLMIYFTSKKPSGVPDRFSGSKSGNTASLTVSGLQAEDEADYYCQTYAAPLGPMFGGGTKLTVLGQPKAAPSVTLFPPSSEELQANKATLVCLISDFYPGAVTVAWKADSSPVKAGVETTTPSKQSNNKYAASSYLSLTPEQWKSHRSYSCQVTHEGSTVEKTVAPTECS
Turning to B5, the Relative binding amount in assay [1] is 2.7. For the same molecule, the Binding amount in assay [2] came to 0.022.
